Here are results for five substances from the supplement of paper PMC5998384.

Data set [1] relates to HeLa Kyoto. Put plainly: solubility in G1/S (NP-40 vs SDS abundance) (log2 ratio); higher = more soluble. To be noted: cell cycle stage: G1/S.
The subject of data set [2] is HeLa Kyoto. Nature of the data set: thermal stability score vs G1/S (z-score of summed log2 fold changes over temperatures); higher = more thermally stable than in G1/S.
The subject of data set [3] is HeLa Kyoto. Put plainly: solubility change mitosis vs G1/S (difference of NP-40 vs SDS log2 ratios) (log2 ratio difference); higher = more soluble in mitosis.
Data set [4] relates to HeLa Kyoto. Put plainly: melting temperature (median over replicates), in situ; higher = more thermally stable.
The mark [5] stands for this setting: cell cycle stage: early G1 (4.5 h after nocodazole release).
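Wherever melting temperature (median over replicates), in situ is given: HeLa Kyoto cells synchronized by double thymidine or nocodazole block, proteins quantified by TMT10plex mass spectrometry, three independent biological replicates.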
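Wherever solubility change mitosis vs G1/S (difference of NP-40 vs SDS log2 ratios) is given: synchronized HeLa Kyoto cells (double thymidine block for G1/S, nocodazole release for mitosis), protein amounts in NP-40 versus SDS lysates quantified by mass spectrometry, three biological replicates.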
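Wherever solubility in G1/S (NP-40 vs SDS abundance) is given: HeLa Kyoto cells arrested at G1/S by double thymidine block, proteins quantified by TMT10plex mass spectrometry in mild NP-40 versus SDS extracts, three biological replicates.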
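Wherever thermal stability score vs G1/S (z-score of summed log2 fold changes over temperatures) is given: synchronized HeLa Kyoto cells, proteins quantified by TMT10plex mass spectrometry, three biological replicates, mitosis taken 0.5 h after nocodazole release, G1/S directly after double thymidine block.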

“MAPPGSSTVFLLALTIIASTWALTPTHYLTKHDVERLKASLDRPFTNLESAFYSIVGLSSLGAQVPDAKKACTYIRSNLDPSNVDSLFYAAQASQALSGCEISISNETKDLLLAAVSEDSSVTQIYHAVAALSGFGLPLASQEALSALTARLSKEETVLATVQALQTASHLSQQADLRSIVEEIEDLVARLDELGGVYLQFEEGLETTALFVAATYKLMDHVGTEPSIKEDQVIQLMNAIFSKKNFESLSEAFSVASAAAVLSHNRYHVPVVVVPEGSASDTHEQAILRLQVTNVLSQPLTQATVKLEHAKSVASRATVLQKTSFTPVGDVFELNFMNVKFSSGYYDFLVEVEGDNRYIANTVELRVKISTEVGITNVDLSTVDKDQSIAPKTTRVTYPAKAKGTFIADSHQNFALFFQLVDVNTGAELTPHQTFVRLHNQKTGQEVVFVAEPDNKNVYKFELDTSERKIEFDSASGTYTLYLIIGDATLKNPILWNVADVVIKFPEEEAPSTVLSQNLFTPKQEIQHLFREPEKRPPTVVSNTFTALILSPLLLLFALWIRIGANVSNFTFAPSTIIFHLGHAAMLGLMYVYWTQLNMFQTLKYLAILGSVTFLAGNRMLAQQAVKRTAH [RPN2]”: the “solubility in G1/S (log2)” value with HeLa Kyoto [1] came out at 0.0246. Besides, the thermal stability score in the data set with HeLa Kyoto [2] (setting [5]) turned out to be 1.07; in the data set on HeLa Kyoto [2] (cell cycle stage: mitosis), 2.44. Further, the “solubility change mitosis (log2)” value with HeLa Kyoto [3] was -0.162. Moreover, the melting temperature in the data set with HeLa Kyoto [4] (cell cycle stage: G1/S) amounted to 54 °C; in the data set with HeLa Kyoto [4] (cell cycle stage: mitosis), 53.7 °C.
As to “MAGRRVNVNVGVLGHIDSGKTALARALSTTASTAAFDKQPQSRERGITLDLGFSCFSVPLPARLRSSLPEFQAAPEAEPEPGEPLLQVTLVDCPGHASLIRTIIGGAQIIDLMMLVIDVTKGMQTQSAECLVIGQIACQKLVVVLNKIDLLPEGKRQAAIDKMTKKMQKTLENTKFRGAPIIPVAAKPGGPEAPETEAPQGIPELIELLTSQISIPTRDPSGPFLMSVDHCFSIKGQGTVMTGTILSGSISLGDSVEIPALKVVKKVKSMQMFHMPITSAMQGDRLGICVTQFDPKLLERGLVCAPESLHTVHAALISVEKIPYFRGPLQTKAKFHITVGHETVMGRLMFFSPAPDNFDQEPILDSFNFSQEYLFQEQYLSKDLTPAVTDNDEADKKAGQATEGHCPRQQWALVEFEKPVTCPRLCLVIGSRLDADIHTNTCRLAFHGILLHGLEDRNYADSFLPRLKVYKLKHKHGLVERAMDDYSVIGRSLFKKETNIQLFVGLKVHLSTGELGIIDSAFGQSGKFKIHIPGGLSPESKKILTPALKKRARAGRGEATRQEESAERSEPSQHVVLSLTFKRYVFDTHKRMVQSP [EEFSEC]”, in the data set on HeLa Kyoto [1], the “solubility in G1/S (log2)” value was -0.248. The thermal stability score came to 2.19 with HeLa Kyoto [2] (setting [5]) and 3.12 in the data set on HeLa Kyoto [2] (cell cycle stage: mitosis). For the same substance, the “solubility change mitosis (log2)” value in the data set on HeLa Kyoto [3] came to 0.119. The melting temperature is 49.3 °C in the data set on HeLa Kyoto [4] (cell cycle stage: G1/S) and 51.2 °C with HeLa Kyoto [4] (cell cycle stage: mitosis).
For “MTKFGFLRLSYEKQDTLLKLLILSMAAVLSFSTRLFAVLRFESVIHEFDPYFNYRTTRFLAEEGFYKFHNWFDDRAWYPLGRIIGGTIYPGLMITSAAIYHVLHFFHITIDIRNVCVFLAPLFSSFTTIVTYHLTKELKDAGAGLLAAAMIAVVPGYISRSVAGSYDNEGIAIFCMLLTYYMWIKAVKTGSICWAAKCALAYFYMVSSWGGYVFLINLIPLHVLVLMLTGRFSHRIYVAYCTVYCLGTILSMQISFVGFQPVLSSEHMAAFGVFGLCQIHAFVDYLRSKLNPQQFEVLFRSVISLVGFVLLTVGALLMLTGKISPWTGRFYSLLDPSYAKNNIPIIASVSEHQPTTWSSYYFDLQLLVFMFPVGLYYCFSNLSDARIFIIMYGVTSMYFSAVMVRLMLVLAPVMCILSGIGVSQVLSTYMKNLDISRPDKKSKKQQDSTYPIKNEVASGMILVMAFFLITYTFHSTWVTSEAYSSPSIVLSARGGDGSRIIFDDFREAYYWLRHNTPEDAKVMSWWDYGYQITAMANRTILVDNNTWNNTHISRVGQAMASTEEKAYEIMRELDVSYVLVIFGGLTGYSSDDINKFLWMVRIGGSTDTGKHIKENDYYTPTGEFRVDREGSPVLLNCLMYKMCYYRFGQVYTEAKRPPGFDRVRNAEIGNKDFELDVLEEAYTTEHWLVRIYKVKDLDNRGLSRT [STT3A]”, the “solubility in G1/S (log2)” value in the data set with HeLa Kyoto [1] was -0.102. Also, the thermal stability score in the data set with HeLa Kyoto [2] (setting [5]) turned out to be 1.3; in the data set on HeLa Kyoto [2] (cell cycle stage: mitosis) it was 3.3. Further, the “solubility change mitosis (log2)” value in the data set on HeLa Kyoto [3] was -0.105. The figures for the melting temperature in the data set with HeLa Kyoto [4] (cell cycle stage: G1/S) and with HeLa Kyoto [4] (cell cycle stage: mitosis) were 53.7 °C and 54 °C, respectively.
As for “MAAVATCGSVAASTGSAVATASKSNVTSFQRRGPRASVTNDSGPRLVSIAGTRPSVRNGQLLVSTGLPALDQLLGGGLAVGTVLLIEEDKYNIYSPLLFKYFLAEGIVNGHTLLVASAKEDPANILQELPAPLLDDKCKKEFDEDVYNHKTPESNIKMKIAWRYQLLPKMEIGPVSSSRFGHYYDASKRMPQELIEASNWHGFFLPEKISSTLKVEPCSLTPGYTKLLQFIQNIIYEEGFDGSNPQKKQRNILRIGIQNLGSPLWGDDICCAENGGNSHSLTKFLYVLRGLLRTSLSACIITMPTHLIQNKAIIARVTTLSDVVVGLESFIGSERETNPLYKDYHGLIHIRQIPRLNNLICDESDVKDLAFKLKRKLFTIERLHLPPDLSDTVSRSSKMDLAESAKRLGPGCGMMAGGKKHLDF [ELP4]”, in the data set with HeLa Kyoto [1], the “solubility in G1/S (log2)” value came out at 0.226. Further, the thermal stability score was 0.169 with HeLa Kyoto [2] (setting [5]) and -0.665 in the data set with HeLa Kyoto [2] (cell cycle stage: mitosis). In the data set on HeLa Kyoto [3], the “solubility change mitosis (log2)” value is -0.017. Besides, the values for the melting temperature in the data set on HeLa Kyoto [4] (cell cycle stage: G1/S) and with HeLa Kyoto [4] (cell cycle stage: mitosis) were 53.8 °C and 55.4 °C, respectively.
With FASN, the “solubility in G1/S (log2)” value in the data set on HeLa Kyoto [1] was -0.0375. For the same substance, the thermal stability score with HeLa Kyoto [2] (setting [5]) was -0.721; in the data set with HeLa Kyoto [2] (cell cycle stage: mitosis) it was 0.266. Moreover, the “solubility change mitosis (log2)” value in the data set with HeLa Kyoto [3] is -0.203. The melting temperature with HeLa Kyoto [4] (cell cycle stage: G1/S) worked out at 52.1 °C; with HeLa Kyoto [4] (cell cycle stage: mitosis), 51.8 °C.
